Columns and labels:
PKC-α, purified isoform = target: T1, PKC-α, purified isoform (UniProt P17252 1-672); test: purified isoform competition ELISA, summary grade
T1 construct: also called PKC-alpha; protein kinase C alpha

PKC-βI, purified isoform = target: T2, PKC-βI, purified isoform (UniProt P05771-1 1-671); test: purified isoform competition ELISA, summary grade
T2 construct: also called PKC-beta I; beta 1

PKC-ε, purified isoform [1] = target: T3, PKC-ε, purified isoform (UniProt Q02156 1-737); test: purified isoform competition ELISA, summary grade
T3 construct: also called PKC-epsilon; epsilon
T3 sequence (looked up): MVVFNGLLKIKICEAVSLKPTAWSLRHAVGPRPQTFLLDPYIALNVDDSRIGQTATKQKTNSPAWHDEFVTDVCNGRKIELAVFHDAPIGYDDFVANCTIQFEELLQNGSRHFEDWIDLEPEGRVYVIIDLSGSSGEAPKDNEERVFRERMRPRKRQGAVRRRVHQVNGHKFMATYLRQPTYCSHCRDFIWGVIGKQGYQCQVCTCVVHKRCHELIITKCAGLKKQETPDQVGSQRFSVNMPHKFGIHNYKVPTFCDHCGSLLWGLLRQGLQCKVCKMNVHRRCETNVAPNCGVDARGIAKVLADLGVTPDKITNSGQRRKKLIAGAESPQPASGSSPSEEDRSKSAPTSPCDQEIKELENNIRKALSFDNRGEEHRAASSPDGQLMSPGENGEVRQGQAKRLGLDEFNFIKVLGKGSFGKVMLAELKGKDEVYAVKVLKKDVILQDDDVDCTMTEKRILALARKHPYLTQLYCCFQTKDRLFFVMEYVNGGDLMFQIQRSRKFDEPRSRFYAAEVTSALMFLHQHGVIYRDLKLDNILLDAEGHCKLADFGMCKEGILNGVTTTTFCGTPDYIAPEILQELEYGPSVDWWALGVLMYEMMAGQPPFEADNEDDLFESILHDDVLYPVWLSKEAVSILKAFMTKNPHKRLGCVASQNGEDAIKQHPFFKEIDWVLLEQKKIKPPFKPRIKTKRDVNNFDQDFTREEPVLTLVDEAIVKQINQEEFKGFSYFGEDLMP

[2] = target: T4, PKC-βI in extracts of human cell lines (human, UniProt P05771-1 2-671); test: Western-blot competition, cell extracts: PRE at 10X/20X the anti-PKC beta I primary antibody concentration competes with that antibody; band densitometry (lower band = PRE bound)
T4 construct: Denatured on the Western blot membrane; beta I splice form; also called PKC-beta I (cell extract)
T4 sequence (P05771 2-671 limits assumed): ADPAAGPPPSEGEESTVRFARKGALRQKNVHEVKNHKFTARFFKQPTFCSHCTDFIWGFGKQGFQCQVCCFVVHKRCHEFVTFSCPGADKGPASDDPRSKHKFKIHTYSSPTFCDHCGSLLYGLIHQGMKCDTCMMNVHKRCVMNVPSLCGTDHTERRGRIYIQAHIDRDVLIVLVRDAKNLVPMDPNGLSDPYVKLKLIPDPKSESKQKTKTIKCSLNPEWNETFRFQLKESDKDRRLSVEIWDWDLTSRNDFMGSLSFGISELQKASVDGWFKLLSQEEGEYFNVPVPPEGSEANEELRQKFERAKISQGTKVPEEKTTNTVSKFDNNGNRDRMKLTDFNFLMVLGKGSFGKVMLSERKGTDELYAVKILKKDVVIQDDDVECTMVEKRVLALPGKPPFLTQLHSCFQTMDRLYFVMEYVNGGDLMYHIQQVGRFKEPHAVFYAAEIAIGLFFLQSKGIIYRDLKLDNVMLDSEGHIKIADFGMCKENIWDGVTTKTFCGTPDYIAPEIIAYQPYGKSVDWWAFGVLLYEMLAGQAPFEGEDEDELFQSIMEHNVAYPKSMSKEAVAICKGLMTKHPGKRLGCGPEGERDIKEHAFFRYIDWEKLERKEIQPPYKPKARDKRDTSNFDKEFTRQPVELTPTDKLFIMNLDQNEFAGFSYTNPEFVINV

[3] = target: T5, PKC-ι in extracts of human cell lines (human, UniProt P41743 2-596); test: Western-blot competition, cell extracts: PRE at 10X/20X the anti-PKC iota primary antibody concentration competes with that antibody; band densitometry (lower band = PRE bound)
T5 construct: Denatured on the Western blot membrane; also called PKC-iota (cell extract)
T5 sequence (looked up): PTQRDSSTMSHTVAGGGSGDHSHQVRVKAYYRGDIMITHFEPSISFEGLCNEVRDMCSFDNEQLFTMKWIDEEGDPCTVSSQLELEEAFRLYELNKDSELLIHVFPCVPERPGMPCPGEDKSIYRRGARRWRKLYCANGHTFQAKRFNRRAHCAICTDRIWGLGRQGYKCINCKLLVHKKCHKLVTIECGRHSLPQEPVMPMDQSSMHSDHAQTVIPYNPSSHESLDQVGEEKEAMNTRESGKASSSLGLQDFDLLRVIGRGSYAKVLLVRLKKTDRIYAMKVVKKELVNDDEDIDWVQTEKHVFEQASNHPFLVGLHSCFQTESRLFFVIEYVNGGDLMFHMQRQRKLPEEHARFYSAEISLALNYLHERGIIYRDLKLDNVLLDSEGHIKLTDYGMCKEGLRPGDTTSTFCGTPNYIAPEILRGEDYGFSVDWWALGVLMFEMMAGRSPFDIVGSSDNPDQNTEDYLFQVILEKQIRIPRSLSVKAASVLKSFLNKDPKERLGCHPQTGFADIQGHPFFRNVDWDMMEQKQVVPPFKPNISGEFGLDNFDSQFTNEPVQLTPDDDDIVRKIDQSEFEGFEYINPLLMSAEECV

PKC-ε, purified isoform [4] = target: T3, PKC-ε, purified isoform; test: competition ELISA on coated purified PKC-ε vs anti-PKC ε antibody; PRE 200 µM
PKC-ε, purified isoform [5] = target: T3, PKC-ε, purified isoform; test: competition ELISA on coated purified PKC-ε vs anti-PKC ε antibody; PRE 100 µM
[6] = target: T6, PKC-ε in extracts of human cell lines (human, UniProt Q02156 1-737); test: Western-blot competition, cell extracts: PRE at 10X/20X the anti-PKC epsilon primary antibody concentration competes with that antibody; band densitometry (lower band = PRE bound)
T6 construct: Denatured on the Western blot membrane; also called PKC-epsilon (cell extract)
T6 sequence (looked up): T3 sequence (looked up)

[7] = target: T7, PKC-ζ in extracts of human cell lines (human, UniProt Q05513 1-592); test: Western-blot competition, cell extracts: PRE at 10X/20X the anti-PKC zeta primary antibody concentration competes with that antibody; band densitometry (lower band = PRE bound)
T7 construct: Denatured on the Western blot membrane; also called PKC-zeta (cell extract)
T7 sequence (looked up): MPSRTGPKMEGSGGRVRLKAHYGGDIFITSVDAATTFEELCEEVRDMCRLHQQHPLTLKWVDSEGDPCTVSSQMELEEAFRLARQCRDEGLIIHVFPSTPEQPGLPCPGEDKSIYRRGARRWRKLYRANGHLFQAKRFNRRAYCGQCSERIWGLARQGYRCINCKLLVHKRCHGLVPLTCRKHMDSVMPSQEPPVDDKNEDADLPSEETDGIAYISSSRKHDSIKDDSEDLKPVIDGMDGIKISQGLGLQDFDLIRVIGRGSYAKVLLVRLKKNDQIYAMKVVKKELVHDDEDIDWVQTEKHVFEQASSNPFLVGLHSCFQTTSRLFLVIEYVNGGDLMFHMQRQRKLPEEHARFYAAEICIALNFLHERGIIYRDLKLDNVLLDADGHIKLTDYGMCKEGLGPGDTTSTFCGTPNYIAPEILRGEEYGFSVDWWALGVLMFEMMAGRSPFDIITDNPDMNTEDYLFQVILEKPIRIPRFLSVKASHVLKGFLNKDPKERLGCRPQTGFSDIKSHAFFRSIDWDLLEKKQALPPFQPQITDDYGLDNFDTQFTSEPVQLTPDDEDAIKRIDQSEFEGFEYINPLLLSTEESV

PKC-ε, purified isoform [8] = target: T3, PKC-ε, purified isoform; test: competition ELISA on coated purified PKC-ε vs anti-PKC ε antibody; PRE 50 µM

T2 sequence (P05771 whole entry, canonical isoform): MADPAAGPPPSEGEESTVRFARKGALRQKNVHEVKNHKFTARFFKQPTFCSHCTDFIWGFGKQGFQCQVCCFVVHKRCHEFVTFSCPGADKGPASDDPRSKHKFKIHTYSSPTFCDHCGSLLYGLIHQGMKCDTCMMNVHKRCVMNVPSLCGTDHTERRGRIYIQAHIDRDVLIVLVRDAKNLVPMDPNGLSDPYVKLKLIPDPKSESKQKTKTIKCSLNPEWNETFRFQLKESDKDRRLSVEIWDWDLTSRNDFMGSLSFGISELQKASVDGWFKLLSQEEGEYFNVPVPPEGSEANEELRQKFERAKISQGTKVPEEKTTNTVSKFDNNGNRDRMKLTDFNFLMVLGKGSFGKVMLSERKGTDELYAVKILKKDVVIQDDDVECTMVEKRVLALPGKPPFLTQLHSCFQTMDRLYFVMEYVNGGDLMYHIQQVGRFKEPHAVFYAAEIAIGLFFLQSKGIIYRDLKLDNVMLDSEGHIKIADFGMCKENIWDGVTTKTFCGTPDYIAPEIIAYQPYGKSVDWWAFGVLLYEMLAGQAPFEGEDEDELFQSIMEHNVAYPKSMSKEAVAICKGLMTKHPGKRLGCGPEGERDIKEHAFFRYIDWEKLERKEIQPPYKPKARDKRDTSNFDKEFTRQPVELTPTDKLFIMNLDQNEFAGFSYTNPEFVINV

B1: PRE 12 (peptide)
peptide: Ac-KDAQNLI-NH2
notes: Ac-KDAQNLI-NH2; also called peptide recognition element 12
B1: no binding (PKC-α, purified isoform); no binding (PKC-βI, purified isoform); no binding (PKC-ε, purified isoform [1]). For the same binder, the binding result [2] was “no binding (tested: 20X the primary antibody concentration)”, the binding result [3] was “no binding (tested: 20X the primary antibody concentration)” and the relative binding capacity (PKC-ε, purified isoform [4]) was 0%. For the same binder, the relative binding capacity (PKC-ε, purified isoform [5]) was 0.28%, the binding result [6] was “no binding (tested: 20X the primary antibody concentration)” and the binding result [7] was “binds”. The relative binding capacity (PKC-ε, purified isoform [8]) was 10.4%.
